{"source": "paper PMC5487681", "about": "“Identification of Antifungal H^+-ATPase Inhibitors with Effect on Plasma Membrane Potential” (Antimicrobial Agents and Chemotherapy, 2017)", "origin": "cited, not measured here", "molecules": {"B1": {"name": "lactoferrin: immunoprotein that inhibits Pma1 (protein, UniProt P02788 20-710, looked up)", "Lactotransferrin": "GRRRSVQWCAVSQPEATKCFQWQRNMRKVRGPPVSCIKRDSPIQCIQAIAENRADAVTLDGGFIYEAGLAPYKLRPVAAEVYGTERQPRTHYYAVAVVKKGGSFQLNELQGLKSCHTGLRRTAGWNVPIGTLRPFLNWTGPPEPIEAAVARFFSASCVPGADKGQFPNLCRLCAGTGENKCAFSSQEPYFSYSGAFKCLRDGAGDVAFIRESTVFEDLSDEAERDEYELLCPDNTRKPVDKFKDCHLARVPSHAVVARSVNGKEDAIWNLLRQAQEKFGKDKSPKFQLFGSPSGQKDLLFKDSAIGFSRVPPRIDSGLYLGSGYFTAIQNLRKSEEEVAARRARVVWCAVGEQELRKCNQWSGLSEGSVTCSSASTTEDCIALVLKGEADAMSLDGGYVYTAGKCGLVPVLAENYKSQQSSDPDPNCVDRPVEGYLAVAVVRRSDTSLTWNSVKGKKSCHTAVDRTAGWNIPMGLLFNQTGSCKFDEYFSQSCAPGSDPRSNLCALCIGDEQGENKCVPNSNERYYGYTGAFRCLAENAGDVAFVKDVTVLQNTDGNNNEAWAKDLKLADFALLCLDGKRKPVTEARSCHLAMAPNHAVVSRMDKVERLKQVLLHQQAKFGRNGSDCPDKFCLFQSETKNLLFNDNTECLARLHGKTTYEKYLGPQYVAGITNLKKCSTSPLLEACEFLRK"}}, "test_system": "C. albicans cells", "set-up": "method as in PMID 27139463", "data": [{"molecule": "B1", "values": [{"measurement": "Increase in iATP levels, C. albicans", "result": "> 600", "unit": "%"}]}]}
